According to paper PMC5705213, “Immunoproteasome functions explained by divergence in cleavage specificity and regulation” (eLife, 2017):

Columns and labels:
Assay type in all cases: biochemical, human
[1] = substrate: Cc1cc(=O)oc2cc(NC(=O)[C@H](Cc3ccc(O)cc3)NC(=O)[C@@H](NC(=O)[C@H](CC(C)C)NC(=O)[C@H](CC(C)C)NC(=O)CCC(=O)O)C(C)C)ccc12; assay: Purified proteasome activity assay with fluorogenic substrates, SDS-activated i20S; conditions: other: Michaelis-Menten plot, commercial substrate; pH 8.0
Procedure: (§1) Non-prime-side substrate specificity profiling was performed with a complete, diverse library of 160,000 fluorogenic substrates containing the general structure acetyl-P4-P3-P2-P1-(7-amino-4-carbamoylmethylcourmarin, ACC) ([Harris et al., 2000]). For each sub-library, 10 nM human i20S or c20S underwent SDS pre-activation for 1 hr at room temperature in assay buffer (20 mM Tris, pH 8.0, 0.5 mM EDTA) containing 0.03% SDS. […] Activity assays were carried out over 1 hr following two-fold sample dilution in the same 0.03% SDS-containing buffer that also contained a 250 μM final concentration of PS-SCL substrate pool. Activity was recorded in black 96-well round bottom plates (Costar, COrning, NY) using a BioTek Synergy H4 Hybrid Multi-Mode Microplate Reader set to λex = 380 nm and λem = 460 nm (gain = 63). Initial velocity in relative fluorescence units per second (RFU/s) was calculated using a linear fit of the progress curves with Gen5 software v.2.03.
(§2) Activity assays with individual fluorogenic substrates were carried out as described above for the PS-SCL assays using final concentrations of 5 nM SDS-activated i20S or c20S and 10 μM substrate except where noted below. The commercial substrates Suc-LLVY-AMC, Ac-WLA-AMC (Boston Biochem, S-330), and Ac-ANW-AMC (Boston Biochem, S-320) were used as supplied. To convert cleaved substrate RFU to free AMC or ACC dye concentration, calibration curves were prepared through total enzymatic hydrolysis of ACC- or AMC-containing peptides that had been quantified through amino acid analysis (Alphalyse, Inc.). Substrate selectivity of PA28α- and SDS-activated 20S proteasomes was compared following 1 hr pre-incubation at room temperature either in the presence of 0.03% SDS or with 12 molar equivalents of PA28α activator in the absence of SDS. For substrate selectivity assays with mixed, purified proteasomes, i20S and c20S underwent individual SDS pre-activation prior to assaying with 5 nM final concentration of pooled 20S. Proteasome ratio assays were performed with 10 μM EWFW-ACC, 30 μM iso-VQA-ACC, and 30 μM Suc-LLVY-AMC. All activity measurements were recorded on the BioTek plate reader described above using λex = 380 nm and λem = 460 nm (gain = 63) for ACC substrates and Suc-LLVY-AMC; 345 nm and λem = 445 nm (gain = 63) for Ac-WLA-AMC and Ac-ANW-AMC; and λex = 328 nm and λem = 393 nm (gain = 75) for the GEWHWPS IQ substrate. Michaelis-Menten calculations were performed using a non-linear fit in Prism v.6.0.

[2] = substrate: NC(=O)Cc1cc(=O)oc2cc(NC(=O)[C@H](Cc3c[nH]c4ccccc34)NC(=O)[C@H](Cc3ccccc3)NC(=O)[C@H](Cc3c[nH]c4ccccc34)NC(=O)[C@@H](N)CCC(=O)O)ccc12; assay: as above; conditions: other: i20S, Michaelis-Menten; pH 8.0
Procedure: as §1, §2

[3] = substrate: CC(=O)N[C@@H](C)C(=O)N[C@@H](CC(N)=O)C(=O)N[C@@H](Cc1c[nH]c2ccccc12)C(=O)Nc1ccc2c(C)cc(=O)oc2c1; assay: as above; conditions: other: i20S, Michaelis-Menten; pH 8.0
Procedure: as §1, §2

[4] = substrate: Cc1cc(C(=O)N[C@H](C(=O)N[C@@H](CCC(N)=O)C(=O)N[C@@H](C)C(=O)Nc2ccc3c(CC(N)=O)cc(=O)oc3c2)C(C)C)no1; assay: as above; conditions: other: i20S, Michaelis-Menten; pH 8.0
Procedure: as §1, §2

[5] = substrate: NC(=O)Cc1cc(=O)oc2cc(NC(=O)[C@H](Cc3c[nH]c4ccccc34)NC(=O)[C@H](Cc3c[nH]cn3)NC(=O)[C@H](Cc3c[nH]c4ccccc34)NC(=O)[C@@H](N)CCC(=O)O)ccc12; assay: as above; conditions: other: i20S, Michaelis-Menten; pH 8.0
Procedure: as §1, §2

[6] = substrate: Cc1cc(=O)oc2cc(NC(=O)[C@H](Cc3ccc(O)cc3)NC(=O)[C@@H](NC(=O)[C@H](CC(C)C)NC(=O)[C@H](CC(C)C)NC(=O)CCC(=O)O)C(C)C)ccc12; assay: Purified proteasome activity assay with fluorogenic substrates, SDS-activated c20S; conditions: other: Michaelis-Menten plot, commercial substrate; pH 8.0
Procedure: as §1, §2

[7] = substrate: NC(=O)Cc1cc(=O)oc2cc(NC(=O)[C@H](Cc3c[nH]c4ccccc34)NC(=O)[C@H](Cc3ccccc3)NC(=O)[C@H](Cc3c[nH]c4ccccc34)NC(=O)[C@@H](N)CCC(=O)O)ccc12; assay: as above; conditions: other: c20S, Michaelis-Menten; pH 8.0
Procedure: as §1, §2

[8] = substrate: CC(=O)N[C@@H](C)C(=O)N[C@@H](CC(N)=O)C(=O)N[C@@H](Cc1c[nH]c2ccccc12)C(=O)Nc1ccc2c(C)cc(=O)oc2c1; assay: as above; conditions: other: c20S, Michaelis-Menten; pH 8.0
Procedure: as §1, §2

[9] = substrate: Cc1cc(C(=O)N[C@H](C(=O)N[C@@H](CCC(N)=O)C(=O)N[C@@H](C)C(=O)Nc2ccc3c(CC(N)=O)cc(=O)oc3c2)C(C)C)no1; assay: as above; conditions: other: c20S, Michaelis-Menten; pH 8.0
Procedure: as §1, §2

[10] = substrate: NC(=O)Cc1cc(=O)oc2cc(NC(=O)[C@H](Cc3c[nH]c4ccccc34)NC(=O)[C@H](Cc3c[nH]cn3)NC(=O)[C@H](Cc3c[nH]c4ccccc34)NC(=O)[C@@H](N)CCC(=O)O)ccc12; assay: as above; conditions: other: c20S, Michaelis-Menten; pH 8.0
Procedure: as §1, §2

B1: human immunoproteasome core particle (i20S) (Homo sapiens) (protein)
chain 1: TTTLAFKFQHGVIAAVDSRASAGSYISALRVNKVIEINPYLLGTMSGCAADCQYWERLLAKECRLYYLRNGERISVSAASKLLSNMMCQYRGMGLSMGSMICGWDKKGPGLYYVDEHGTRLSGNMFSTGSGNTYAYGVMDSGYRPNLSPEEAYDLGRRAIAYATHRDSYSGGVVNMYHMKEDGWVKVESTDVSDLLHQYREANQ
chain 2: RFSPYVFNGGTILAIAGEDFAIVASDTRLSEGFSIHTRDSPKCYKLTDKTVIGCSGFHGDCLTLTKIIEARLKMYKHSNNKAMTTGAIAAMLSTILYSRRFFPYYVYNIIGGLDEEGKGAVYSFDPVGSYQRDSFKAGGSASAMLQPLLDNQVGFKNMQNVEHVPLSLDRAMRLVKDVFISAAERDVYTGDALRICIVTKEGIREETVSLRKD
notes: purchased Boston Biochem E-370
Km [1]: 98.6 µM | Km [2]: 7.0 µM | kcat [2]: 4.8 s⁻¹ | kcat/Km [2]: 690000 M⁻¹ s⁻¹ | Km [3]: 20 µM | kcat [3]: 1.2 s⁻¹ | kcat/Km [3]: 58000 M⁻¹ s⁻¹ | Km [4]: 43 µM | kcat [4]: 0.65 s⁻¹ | kcat/Km [4]: 15000 M⁻¹ s⁻¹ | Km [5]: 52 µM | kcat [5]: 6.8 s⁻¹ | kcat/Km [5]: 130000 M⁻¹ s⁻¹

B2: constitutive proteasome core particle (c20S) (Homo sapiens) (protein)
chain 1: TTTLAFKFRHGVIVAADSRATAGAYIASQTVKKVIEINPYLLGTMAGGAADCSFWERLLARQCRIYELRNKERISVAAASKLLANMVYQYKGMGLSMGTMICGWDKRGPGLYYVDSEGNRISGATFSVGSGSVYAYGVMDRGYSYDLEVEQAYDLARRAIYQATYRDAYSGGAVNLYHVREDGWIRVSSDNVADLHEKYSGSTP
chain 2: B1 chain 2
notes: purchased Boston Biochem E-360
Km [6]: 65.7 µM | Km [7]: 1.8 µM | kcat [7]: 0.31 s⁻¹ | kcat/Km [7]: 170000 M⁻¹ s⁻¹ | Km [8]: 9.8 µM | kcat [8]: 0.1 s⁻¹ | kcat/Km [8]: 10000 M⁻¹ s⁻¹ | Km [9]: 51 µM | kcat [9]: 2.3 s⁻¹ | kcat/Km [9]: 45000 M⁻¹ s⁻¹ | Km [10]: 73 µM | kcat [10]: 1.1 s⁻¹ | kcat/Km [10]: 15000 M⁻¹ s⁻¹
